Experimental data taken from publication PMC3167601.

Experiments:
Assay in all cases: fluorescence anisotropy
[1] = biological target: T1, IRF-3 DBD wild type (human, UniProt Q14653 1-113)
T1 sequence: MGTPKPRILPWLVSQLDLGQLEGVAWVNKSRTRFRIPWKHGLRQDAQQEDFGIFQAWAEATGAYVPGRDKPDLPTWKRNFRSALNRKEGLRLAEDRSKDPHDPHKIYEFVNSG

[2] = biological target: T2, IRF-3 DBD H40A (human, UniProt Q14653 1-113, H40A)
T2 sequence: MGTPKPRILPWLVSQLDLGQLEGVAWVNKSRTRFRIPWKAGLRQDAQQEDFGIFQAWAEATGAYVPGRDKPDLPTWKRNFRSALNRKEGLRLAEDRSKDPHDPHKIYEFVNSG

[3] = biological target: T3, IRF-7 DBD H44A (mouse, UniProt P70434 1-134, H44A)
T3 sequence: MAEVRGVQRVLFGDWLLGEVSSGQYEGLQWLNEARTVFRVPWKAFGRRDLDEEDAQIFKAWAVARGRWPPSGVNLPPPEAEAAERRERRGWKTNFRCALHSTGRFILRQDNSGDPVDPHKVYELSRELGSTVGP

[4] = biological target: T4, IRF-7 DBD wild type (mouse, UniProt P70434 1-134)
T4 sequence: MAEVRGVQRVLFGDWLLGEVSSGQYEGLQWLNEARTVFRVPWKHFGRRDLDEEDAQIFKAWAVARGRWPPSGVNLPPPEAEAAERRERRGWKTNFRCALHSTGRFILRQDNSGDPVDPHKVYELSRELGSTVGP

B1: PRDI 15-mer duplex (dsDNA)
DNA 1: GAGAAGTGAAAGTGG
DNA 2: CCACTTTCACTTCTC
Question: With B1 as the binder, how does the Kd [1] read?
Answer: Its Kd is 486 nM.

Question: What about the Kd [2] of the same binder?
Answer: Its Kd is 1710 nM.

Question: What about the Kd [3] of the same binder?
Answer: The Kd was 532 nM.

Question: And the Kd [4]?
Answer: The Kd was 630 nM.
